Laboratory results as given in PMC5847591.
pKd: −log10 of the molar value.

Biological target: NY-ESO-1_(60–72)–HLA-B*07:02 complex (human)
Assay: SPR

KFJ4 TCR, soluble ectodomain (TRAV13-1 α-chain), sequence (P01848 whole entry, looked up, the tested form may be a part): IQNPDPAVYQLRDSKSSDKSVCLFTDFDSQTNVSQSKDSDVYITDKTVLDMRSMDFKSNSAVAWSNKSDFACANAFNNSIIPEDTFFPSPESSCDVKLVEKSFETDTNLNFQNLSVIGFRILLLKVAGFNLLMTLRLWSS
KFJ15 TCR, soluble ectodomain, sequence (P01848 whole entry, looked up, the tested form may be a part): as above

Row | Substance | pKd | koff [s⁻¹]
1 | KFJ15 TCR, soluble ectodomain (from UniProt P01848) | 4.38 | –
2 | KFJ4 TCR, soluble ectodomain (TRAV13-1 α-chain) (from UniProt P01848) | 4.28 | 0.12
3 | KFJ37 TCR, soluble ectodomain (from UniProt A0A0B4J268 18-107; A0A0B4J1U6 20-113) | 4.39 | 0.109
